In publication PMC10119292, “Characterization of a fold in TANGO1 evolved from SH3 domains for the export of bulky cargos” (Nature Communications, 2023):
Each block holds one binder with its values, some of them ahead of it.

Columns and labels:
[1] = molecular target: T1, human Otoraplin, residues 18-128 (human, UniProt Q9NRC9 18-128); test: NMR titration; 1H-15N HSQC series of [U-15N]-Otoraplin with SOS1 (1149-1158) at protein:peptide ratios 1:0.5 to 1:50; PBS pH 7.4, 298 K; two-dimensional lineshape analysis (TITAN), two-state binding model; conditions: both partners purified
T1 construct: Otoraplin, human, UniProt Q9NRC9, residues 18-128; [U-15N]-enriched for the NMR titrations; also called Otoraplin (18-128); not shown: His-tag, N-terminal, cleaved
T1 sequence (looked up): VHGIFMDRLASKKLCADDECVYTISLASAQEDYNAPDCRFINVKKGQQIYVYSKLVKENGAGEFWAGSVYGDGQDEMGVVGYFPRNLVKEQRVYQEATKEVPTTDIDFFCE

[2] = molecular target: human TANGO1 cargo-recognition (MOTH) domain, residues 21-131 (human, UniProt Q5JRA6-4 21-131, disulfides Cys38-Cys43 and Cys61-Cys124; cis-Pro83; His-tag removed with TEV (PDB 7R3M entity has one extra N-terminal Met); 15N or 15N/13C labelled for NMR); test: NMR titration; 1H-15N HSQC series of 208 µM [U-15N]-hsTANGO1(21-131) with peptide 132-151 at ratios 1:0.25 to 1:6; 25 mM HEPES pH 7.4, 150 mM NaCl, 298 K; two-dimensional lineshape analysis (TITAN), two-state binding model; conditions: both partners purified
[3] = molecular target: Collagen type IV from human placenta (human) (UniProt P08572); test: MST; RED-NHS-labeled collagen type IV constant at 25 nM, unlabeled partner varied (16 1:1 dilutions); 10 mM HEPES pH 7.2, 150 mM NaCl, 0.005% Tween-20, 15 µM BSA; 25 °C; 60% LED power, high MST power, MST-on time 1.5 s

human TANGO1 cargo-recognition (MOTH) domain, residues 21-131, sequence (Q5JRA6 other isoform, or with tags, fused parts or gaps): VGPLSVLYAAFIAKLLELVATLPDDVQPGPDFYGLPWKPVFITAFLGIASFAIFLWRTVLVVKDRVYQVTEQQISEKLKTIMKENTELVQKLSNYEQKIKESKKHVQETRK

Kd [1]: 1.3 mM
koff [1]: 350000 s⁻¹
B1: SOS1 (1149-1158), class II PPII helix peptide (peptide, UniProt Q07889 1149-1158, looked up)
peptide: VPPPVPPRRR
notes: SOS1, residues 1149-1158; also called class II ligand; PPII class II ligand; source: synthetic peptide

Kd [2]: 321 µM
koff [2]: 1100 s⁻¹
B2: synthetic peptide of human TANGO1 residues 132-151 (predicted C-terminal helix) (peptide, UniProt Q5JRA6 132-151, looked up)
peptide: FHNYNVEELLGFLELYNSAA
notes: TANGO1, human, UniProt Q5JRA6, residues 132-151; also called C-terminal helix peptide; peptide corresponding to residues 132–151; source: synthetic peptide

Kd [3]: 6.9 µM
B3: Drosophila melanogaster TANGO1 cargo-recognition domain, residues 30-139 (domain or fragment)
chain: TLTWAATLSDKRLCADPKCEQIISMGIAKITYAIGGEGLISFKINSPIRVLSKSAGSNMQLWGVDINGRRGYANKDFIMEKKILVRDKDLLYEVPVVGPGSPVQSVETPV

Kd [3]: 11.4 µM
B4: human TALI MOTH domain, residues 23-123 (domain or fragment)
chain: TKLLADLKKCGDLECEALINRVSAMRDYRGPDCRYLNFTKGEEISVYVKLAGEREDLWAGSKGKEFGYFPRDAVQIEEVFISEEIQMSTKESDFLCLLGVS

Kd [3]: 3.3 µM
B5: human TANGO1 MOTH domain with C-terminal helix, residues 21-151 (domain or fragment)
chain: PGQLDPSTGRRFSEHKLCADDECSMLMYRGEALEDFTGPDCRFVNFKKGDPVYVYYKLARGWPEVWAGSVGRTFGYFPKDLIQVVHEYTKEELQVPTDETDFVCFDGGRDDFHNYNVEELLGFLELYNSAA

Kd [3]: 9.9 µM
B6: human Otoraplin, residues 18-128 (domain or fragment)
chain: T1 sequence (looked up)
